Patent publication US20240261333A1, “NOVEL TARGETS FOR ENHANCING ANTI-TUMOR IMMUNITY” (THE BROAD INSTITUTE, INC., priority 2021, published 2024)

What was measured:
S100A9 = S100A9 (UniProt P06702); assay: co-IP with mouse IgG control, mass spectrometry; lysate of N-FLAG B3GNT2 cells
RPL21 = RPL21 (UniProt P46778); assay: as above
RPS11 = RPS11 (UniProt P62280); assay: as above
S100A8 = S100A8 (UniProt P05109); assay: as above
CTSD = CTSD (UniProt P07339); assay: as above
PPIA = PPIA (UniProt P62937); assay: as above
PPIA, sequence (P62937 2-165 limits assumed): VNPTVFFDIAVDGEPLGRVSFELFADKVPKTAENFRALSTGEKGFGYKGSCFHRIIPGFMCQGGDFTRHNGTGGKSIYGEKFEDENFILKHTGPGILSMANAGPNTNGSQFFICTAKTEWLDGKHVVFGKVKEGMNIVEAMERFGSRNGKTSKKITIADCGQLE

SERPINB12 = SERPINB12 (UniProt Q96P63); assay: as above
SERPINB12, sequence (Q96P63 other isoform, or with tags, fused parts or gaps limits assumed): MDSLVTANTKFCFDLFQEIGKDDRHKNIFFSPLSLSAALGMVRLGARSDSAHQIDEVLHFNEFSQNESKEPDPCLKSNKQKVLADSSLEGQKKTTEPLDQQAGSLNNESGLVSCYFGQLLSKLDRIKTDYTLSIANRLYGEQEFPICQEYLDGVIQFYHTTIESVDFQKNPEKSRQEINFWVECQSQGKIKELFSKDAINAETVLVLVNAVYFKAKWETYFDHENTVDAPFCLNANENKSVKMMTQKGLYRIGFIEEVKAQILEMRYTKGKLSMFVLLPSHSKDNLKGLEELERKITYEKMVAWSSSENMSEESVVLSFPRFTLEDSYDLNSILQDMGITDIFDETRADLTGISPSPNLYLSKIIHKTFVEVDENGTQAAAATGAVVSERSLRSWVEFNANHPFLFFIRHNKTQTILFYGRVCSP

RPL11 = RPL11 (UniProt P62913); assay: as above
YWHAZ = YWHAZ (UniProt P63104); assay: as above
YWHAZ, sequence (P63104 whole entry): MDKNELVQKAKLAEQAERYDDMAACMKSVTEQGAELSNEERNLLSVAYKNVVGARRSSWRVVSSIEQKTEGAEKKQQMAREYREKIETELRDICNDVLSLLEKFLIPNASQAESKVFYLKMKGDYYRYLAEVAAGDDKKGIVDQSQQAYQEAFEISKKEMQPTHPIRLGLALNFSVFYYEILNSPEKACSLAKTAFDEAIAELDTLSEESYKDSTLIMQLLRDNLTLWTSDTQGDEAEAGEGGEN

RPS17 = RPS17 (UniProt P08708); assay: as above
HNRNPA1 = HNRNPA1 (UniProt P09651); assay: as above
ENO1 = ENO1 (UniProt P06733); assay: as above
ENO1, sequence (P06733 2-434 limits assumed): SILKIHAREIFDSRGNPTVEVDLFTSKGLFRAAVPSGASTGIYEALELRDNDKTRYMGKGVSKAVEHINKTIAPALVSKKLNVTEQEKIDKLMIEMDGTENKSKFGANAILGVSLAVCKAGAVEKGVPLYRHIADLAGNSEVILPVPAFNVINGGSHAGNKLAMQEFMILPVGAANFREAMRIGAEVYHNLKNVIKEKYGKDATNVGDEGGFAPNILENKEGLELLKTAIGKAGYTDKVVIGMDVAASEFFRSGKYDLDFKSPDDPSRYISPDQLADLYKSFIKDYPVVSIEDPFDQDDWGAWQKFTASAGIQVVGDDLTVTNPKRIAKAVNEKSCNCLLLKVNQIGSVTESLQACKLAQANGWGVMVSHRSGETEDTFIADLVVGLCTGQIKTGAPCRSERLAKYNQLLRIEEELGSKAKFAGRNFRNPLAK

ATXN2L = ATXN2L (UniProt Q8WWM7); assay: as above
RCC2 = RCC2 (UniProt Q9P258); assay: as above
RCC2, sequence (Q9P258 whole entry): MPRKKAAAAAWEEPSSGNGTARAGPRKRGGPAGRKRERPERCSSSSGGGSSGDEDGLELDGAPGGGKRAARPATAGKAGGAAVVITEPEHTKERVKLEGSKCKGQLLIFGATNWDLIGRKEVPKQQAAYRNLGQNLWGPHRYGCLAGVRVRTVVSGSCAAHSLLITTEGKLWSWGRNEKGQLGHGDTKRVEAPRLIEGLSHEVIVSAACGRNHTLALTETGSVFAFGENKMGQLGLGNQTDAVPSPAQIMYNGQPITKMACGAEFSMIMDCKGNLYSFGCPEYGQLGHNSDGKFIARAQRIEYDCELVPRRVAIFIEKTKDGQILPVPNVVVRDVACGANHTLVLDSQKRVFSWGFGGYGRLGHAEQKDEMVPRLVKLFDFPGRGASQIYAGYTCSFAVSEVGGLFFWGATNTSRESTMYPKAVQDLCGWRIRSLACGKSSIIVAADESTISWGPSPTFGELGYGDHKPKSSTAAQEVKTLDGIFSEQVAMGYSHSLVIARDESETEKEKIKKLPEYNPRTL

RPL31 = RPL31 (UniProt P62899); assay: as above
ACTR3 = ACTR3 (UniProt P61158); assay: as above
SLIRP = SLIRP (UniProt Q9GZT3); assay: as above
TPI1 = TPI1 (UniProt P60174); assay: as above
ATP5F1B = ATP5F1B (UniProt P06576); assay: as above
ATP5F1B, sequence (P06576 48-529 limits assumed): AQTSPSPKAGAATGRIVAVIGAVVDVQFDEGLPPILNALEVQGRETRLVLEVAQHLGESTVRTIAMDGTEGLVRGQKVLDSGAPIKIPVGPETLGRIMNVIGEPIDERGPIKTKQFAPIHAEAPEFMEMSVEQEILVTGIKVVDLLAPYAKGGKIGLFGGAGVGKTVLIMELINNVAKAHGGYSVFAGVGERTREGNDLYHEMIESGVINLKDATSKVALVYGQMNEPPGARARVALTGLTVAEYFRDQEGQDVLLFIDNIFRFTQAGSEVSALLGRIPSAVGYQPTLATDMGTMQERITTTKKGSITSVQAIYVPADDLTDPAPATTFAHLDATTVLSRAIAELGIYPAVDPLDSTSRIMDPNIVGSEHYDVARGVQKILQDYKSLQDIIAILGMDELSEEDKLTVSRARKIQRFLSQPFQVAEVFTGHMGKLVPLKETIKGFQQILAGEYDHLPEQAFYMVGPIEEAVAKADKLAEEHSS

RPN1 = RPN1 (UniProt P04843); assay: as above
RPN1, sequence (P04843 24-607 limits assumed): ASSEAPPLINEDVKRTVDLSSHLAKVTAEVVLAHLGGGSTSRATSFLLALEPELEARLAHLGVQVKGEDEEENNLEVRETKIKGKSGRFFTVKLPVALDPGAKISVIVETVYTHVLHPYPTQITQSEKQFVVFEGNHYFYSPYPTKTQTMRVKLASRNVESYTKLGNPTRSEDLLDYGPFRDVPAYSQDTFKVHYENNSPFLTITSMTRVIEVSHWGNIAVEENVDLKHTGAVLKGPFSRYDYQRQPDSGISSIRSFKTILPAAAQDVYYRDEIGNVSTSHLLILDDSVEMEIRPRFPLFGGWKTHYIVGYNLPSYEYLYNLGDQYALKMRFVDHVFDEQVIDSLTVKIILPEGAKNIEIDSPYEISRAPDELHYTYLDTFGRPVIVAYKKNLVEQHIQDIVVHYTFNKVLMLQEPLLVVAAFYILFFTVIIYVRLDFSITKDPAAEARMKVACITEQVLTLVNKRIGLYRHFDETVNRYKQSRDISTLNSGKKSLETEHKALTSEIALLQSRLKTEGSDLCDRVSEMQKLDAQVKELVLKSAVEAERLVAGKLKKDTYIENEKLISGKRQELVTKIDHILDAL

RPL36A = RPL36A (UniProt P83881); assay: as above
HBA1 = HBA1 (UniProt P69905); assay: as above
HBA1, sequence (P69905 2-142 limits assumed): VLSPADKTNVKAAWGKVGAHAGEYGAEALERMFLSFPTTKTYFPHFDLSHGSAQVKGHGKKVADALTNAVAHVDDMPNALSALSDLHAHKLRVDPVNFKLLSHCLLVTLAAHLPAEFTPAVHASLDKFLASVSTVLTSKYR

LYZ = LYZ (UniProt P61626); assay: as above
LYZ, sequence (P61626 19-148 limits assumed): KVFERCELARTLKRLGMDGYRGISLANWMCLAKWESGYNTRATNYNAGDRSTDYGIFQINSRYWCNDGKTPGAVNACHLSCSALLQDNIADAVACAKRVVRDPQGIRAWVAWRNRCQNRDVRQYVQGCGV

RPL10A = RPL10A (UniProt P62906); assay: as above
RPLP2 = RPLP2 (UniProt P05387); assay: as above
RPLP2, sequence (P05387 whole entry): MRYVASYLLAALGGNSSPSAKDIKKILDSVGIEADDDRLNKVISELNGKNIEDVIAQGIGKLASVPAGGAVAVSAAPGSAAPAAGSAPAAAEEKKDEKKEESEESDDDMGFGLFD

RPS15A = RPS15A (UniProt P62244); assay: as above
PCMT1 = PCMT1 (UniProt P22061); assay: as above
PCMT1, sequence (P22061 2-227 limits assumed): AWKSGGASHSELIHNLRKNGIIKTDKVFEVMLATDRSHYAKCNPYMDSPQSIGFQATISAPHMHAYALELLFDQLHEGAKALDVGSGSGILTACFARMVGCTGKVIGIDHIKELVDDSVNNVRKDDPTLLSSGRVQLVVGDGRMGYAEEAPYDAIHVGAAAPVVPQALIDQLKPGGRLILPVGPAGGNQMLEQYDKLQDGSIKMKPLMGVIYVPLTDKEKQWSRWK

YBX3 = YBX3 (UniProt P16989); assay: as above
YBX3, sequence (P16989 2-372 limits assumed): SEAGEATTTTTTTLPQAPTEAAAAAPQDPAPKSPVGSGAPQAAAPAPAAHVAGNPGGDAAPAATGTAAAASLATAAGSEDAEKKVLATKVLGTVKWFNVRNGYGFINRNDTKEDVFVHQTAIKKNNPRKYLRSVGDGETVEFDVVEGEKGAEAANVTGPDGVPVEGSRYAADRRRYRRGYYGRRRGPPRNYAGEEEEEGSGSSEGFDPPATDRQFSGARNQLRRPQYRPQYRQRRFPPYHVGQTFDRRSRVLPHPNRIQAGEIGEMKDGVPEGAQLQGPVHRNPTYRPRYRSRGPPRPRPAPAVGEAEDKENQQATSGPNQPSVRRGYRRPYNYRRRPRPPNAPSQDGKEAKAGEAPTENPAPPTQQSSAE

LTF = LTF (UniProt P02788); assay: as above
FABP5 = FABP5 (UniProt Q01469); assay: as above
FABP5, sequence (Q01469 2-135 limits assumed): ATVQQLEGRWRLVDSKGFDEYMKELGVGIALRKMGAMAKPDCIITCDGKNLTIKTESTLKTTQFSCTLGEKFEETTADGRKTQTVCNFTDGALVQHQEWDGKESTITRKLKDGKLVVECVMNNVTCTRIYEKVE

TRIM21 = TRIM21 (UniProt P19474); assay: as above
STRAP = STRAP (UniProt Q9Y3F4); assay: as above
STRAP, sequence (Q9Y3F4 whole entry): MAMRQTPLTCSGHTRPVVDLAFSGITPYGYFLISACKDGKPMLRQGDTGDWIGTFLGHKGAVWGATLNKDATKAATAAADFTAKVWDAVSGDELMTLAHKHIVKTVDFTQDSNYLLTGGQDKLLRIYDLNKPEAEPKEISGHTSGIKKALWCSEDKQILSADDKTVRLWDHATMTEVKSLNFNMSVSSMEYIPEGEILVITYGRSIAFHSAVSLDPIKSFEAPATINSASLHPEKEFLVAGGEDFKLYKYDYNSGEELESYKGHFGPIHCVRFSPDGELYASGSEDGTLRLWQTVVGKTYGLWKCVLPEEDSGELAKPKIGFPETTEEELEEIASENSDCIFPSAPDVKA

RPL36 = RPL36 (UniProt Q9Y3U8); assay: as above
EEF1A1 = EEF1A1 (UniProt P68104); assay: as above
RPS12 (human) = RPS12 (human) (UniProt P25398); assay: co-IP/MS, anti-FLAG IP of N-FLAG B3GNT2 cell lysate
CASP14 (human) = CASP14 (human) (UniProt P31944); assay: as above
CASP14 (human), sequence (P31944 whole entry): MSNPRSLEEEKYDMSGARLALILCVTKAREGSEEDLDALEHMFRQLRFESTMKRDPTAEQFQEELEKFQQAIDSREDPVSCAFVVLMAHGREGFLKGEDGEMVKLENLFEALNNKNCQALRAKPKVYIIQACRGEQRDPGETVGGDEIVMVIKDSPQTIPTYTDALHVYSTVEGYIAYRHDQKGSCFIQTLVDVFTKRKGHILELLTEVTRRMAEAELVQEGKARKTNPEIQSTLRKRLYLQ

TUBB (human) = TUBB (human) (UniProt P07437); assay: as above
TGM3 (human) = TGM3 (human) (UniProt Q08188); assay: as above

S100A9, sequence (P06702 whole entry): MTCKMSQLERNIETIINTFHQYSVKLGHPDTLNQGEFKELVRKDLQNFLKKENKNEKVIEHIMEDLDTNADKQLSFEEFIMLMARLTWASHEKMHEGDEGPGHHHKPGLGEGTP
S100A8, sequence (P05109 whole entry): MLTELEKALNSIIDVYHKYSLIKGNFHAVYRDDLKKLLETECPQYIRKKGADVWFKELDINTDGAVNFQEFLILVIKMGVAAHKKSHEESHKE

## IgG control (Millipore Sigma 12-371) (antibody)
S100A9
  co-IP mass spectrometry count: 0
RPL21
  co-IP mass spectrometry count: 5
RPS11
  co-IP mass spectrometry count: 8
S100A8
  co-IP mass spectrometry count: 4
CTSD
  co-IP mass spectrometry count: 3
PPIA
  co-IP mass spectrometry count: 0
SERPINB12
  co-IP mass spectrometry count: 0
RPL11
  co-IP mass spectrometry count: 3
YWHAZ
  co-IP mass spectrometry count: 0
RPS17
  co-IP mass spectrometry count: 3
HNRNPA1
  co-IP mass spectrometry count: 4
ENO1
  co-IP mass spectrometry count: 2
ATXN2L
  co-IP mass spectrometry count: 3
RCC2
  co-IP mass spectrometry count: 0
RPL31
  co-IP mass spectrometry count: 0
ACTR3
  co-IP mass spectrometry count: 3
SLIRP
  co-IP mass spectrometry count: 0
TPI1
  co-IP mass spectrometry count: 2
ATP5F1B
  co-IP mass spectrometry count: 0
RPN1
  co-IP mass spectrometry count: 0
RPL36A
  co-IP mass spectrometry count: 2
HBA1
  co-IP mass spectrometry count: 3
LYZ
  co-IP mass spectrometry count: 4
RPL10A
  co-IP mass spectrometry count: 4
RPLP2
  co-IP mass spectrometry count: 3
RPS15A
  co-IP mass spectrometry count: 2
PCMT1
  co-IP mass spectrometry count: 0
YBX3
  co-IP mass spectrometry count: 0
LTF
  co-IP mass spectrometry count: 6
FABP5
  co-IP mass spectrometry count: 2
TRIM21
  co-IP mass spectrometry count: 0
STRAP
  co-IP mass spectrometry count: 0
RPL36
  co-IP mass spectrometry count: 0
EEF1A1
  co-IP mass spectrometry count: 8

## N-terminal FLAG tagged B3GNT2 (from UniProt Q9NY97 1-397) (enzyme)
RPS12 (human)
  co-IP mass spectrometry count: 3
CASP14 (human)
  co-IP mass spectrometry count: 8
TUBB (human)
  co-IP mass spectrometry count: 164
TGM3 (human)
  co-IP mass spectrometry count: 9
